Experimental data: PMC6618080

Molecular target: Hepatitis B e antigen (HBeAg), purified (hepatitis B virus)
Experiment: SEC-MALS

Q: “Hepatitis B e antigen (HBeAg), purified (natural protein)” was tested. Which stoichiometry N did it give?
A: The stoichiometry N was 2.
